“Also recorded” adds a separate entry of the source.
What was measured:
[1] = tested on: pNFκB in MDA231 cells; assay: Western blot for phosphorylation of NFκB; format: cell-based, human; conditions: MDA231, high SEMA7A
Protocol: (§1) In another exemplary method, the ability of the anti-SEMA7A monoclonal antibodies to affect cellular processes related to cell survival was tested. In one exemplary method, human triple negative breast cancer cell lines with low (MDA468) or high (MDA231) levels of SEMA7A were treated with SmAbH1 (CUH1) or commercially available monoclonal antibody-based inhibitors of an integrin receptor for SEMA7A (α6β1) and then evaluated using Western blot for phosphorylation of NFκB (pNFκB), a key survival marker.

[2] = tested on: pNFκB in MDA468 cells; assay: Western blot for phosphorylation of NFκB; format: cell-based, human; conditions: MDA468, low SEMA7A
Protocol: as §1

[3] = tested on: MCF7 cells; assay: Cell viability, crystal violet, 48 h; format: cell-based, human; conditions: MCF7, 500 nM SmAbH1 vs 8 nM Fulvestrant
Protocol: (§2) For proliferation assays, cells were plated at 2000 cells per well of a 96-well dish. Four pictures of different regions in each well were taken every four hours for 48 h using an IncuCyte ZOOM (Essen BioScience, Ann Arbor, MI, USA). Percent confluence was determined using the IncuCyte ZOOM software (Essen BioScience). 66cl4 Sema7A DDK cells were plated in a 96-well plate in triplicate at 1,500 cells/well. They sat down over 24 hours and then were treated with 1000 nM IgG control, 10 nM SmAbH1, 100 nM SmAbH1, 200 nM SmAbH1, 500 nM SmAbH1, or 1000 nM SmAbH1. The plate was promptly transferred to the IncuCyte where photos were taken and analyzed every 4 hours for 7 days. For additional treatment studies in MCF7, TC11 and SSM2 cells ([…]) were plated in a 24-well plate in complete media and allowed to sit down over 24 hours. At 24 hours after plating, cells were treated with 500 nM IgG control, 500 nM SmAbH1, 8 nM Fulvestrant or the combination. The plate was incubated at 37 C for 48 hours, then fixed with 10% NBF and stained with crystal violet.

[4] = molecular target: T1, purified SEMA7A (Homo sapiens, UniProt O75326); assay: ELISA binding to purified SEMA7A; conditions: serial dilution
T1 construct: Fc; made in house; host or cells: cells stably transfected with SEMA7A-Fc plasmid (human breast cancer cells); purified from medium
T1 sequence (O75326 45-648 limits assumed): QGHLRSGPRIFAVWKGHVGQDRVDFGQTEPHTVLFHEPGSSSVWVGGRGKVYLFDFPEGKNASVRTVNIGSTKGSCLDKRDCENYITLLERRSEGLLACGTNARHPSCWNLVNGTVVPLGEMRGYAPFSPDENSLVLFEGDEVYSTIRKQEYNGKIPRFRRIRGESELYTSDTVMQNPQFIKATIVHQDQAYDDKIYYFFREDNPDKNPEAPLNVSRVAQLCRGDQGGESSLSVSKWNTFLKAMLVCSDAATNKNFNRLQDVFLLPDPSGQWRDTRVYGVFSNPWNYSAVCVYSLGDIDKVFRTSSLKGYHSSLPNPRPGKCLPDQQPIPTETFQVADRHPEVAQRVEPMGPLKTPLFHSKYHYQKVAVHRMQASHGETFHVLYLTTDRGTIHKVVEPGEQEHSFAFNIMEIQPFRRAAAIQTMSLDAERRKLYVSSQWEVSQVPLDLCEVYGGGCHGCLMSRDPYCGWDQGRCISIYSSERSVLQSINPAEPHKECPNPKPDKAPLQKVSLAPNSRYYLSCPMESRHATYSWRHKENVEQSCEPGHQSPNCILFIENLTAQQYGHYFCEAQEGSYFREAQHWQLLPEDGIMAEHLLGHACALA
Protocol: The MultiSorp ELISA 96 well ELISA plate (Thermo Scientific) was coated with 100 μl per well of 50 μg/ml of purified SEMA7A in Coating Buffer A (Thermo Scientific CB07100) and allowed to attach overnight with gentle rocking at 4 degrees. For the peptide competition, half of the antibody was incubated in an Eppendorf tube overnight at a ratio of 1:10 with the SEMA7A peptide on a rotator at 4 degrees. The plate was washed with 200 μl per well of 1× wash buffer (Thermo Scientific WB01) and blocked with 200 μl 1× assay buffer (Thermo Scientific DS98200) for 2 hours and room temp with gentle rocking. 1× assay buffer was removed and a 200 μl serial dilution of SMEA7A mAb in 1× assay buffer was made from columns 1 through 9, with column 10-12 getting 1× assay buffer only. The plate was incubated overnight with gentle rocking at 4 degrees. The plate was washed twice with 200 μl of 1× wash buffer. 100 μl of 200 ng/ml Goat Anti-Mouse IgG HRP (Abcam 97040) in 1× assay buffer was added to columns 1-11, with column 12 getting 1× assay buffer only. The plate was incubated for 2 hours with gentle rocking at room temp. The plate was washed four times with 200 μl 1× wash buffer. 150 μl SuperSignal Femto for ELISA (Thermo Scientific) was mixed 1:1 added to each well and mixed for 1 min and then left to rock at room temperature for 30 minutes. The absorbance was read at 425 nm on a microplate reader.

[5] = tested on: TC11 cells; assay: Cell viability, crystal violet, 48 h; format: cell-based, mouse; conditions: TC11, 500 nM SmAbH1 vs 8 nM Fulvestrant
Protocol: as §2

[6] = tested on: SEMA7A isoforms; assay: Western blot recognition of SEMA7A isoforms; format: binding
[7] = tested on: SEMA7A expressing cells; assay: Mammosphere formation and cell death in vitro; format: cell-based
Protocol: In another exemplary method, it was observed that SEMA7A was sufficient to promote stem cell phenotypes, including mammosphere formation, anchorage independent growth and resistance to chemotherapy, which is a property of cancer stem cells. Finally. SEMA7A expressing cells display increased functions and markers of cancer stem cells.
MCF10A and MCF12A cells were labeled with CellTrace Violet (ThermoFisher: #C34557) for 20 min at 37° C., according to the manufacturer's instructions. A sample of labeled cells was analyzed by flow cytometry to determine labeling efficiency and fluorescent intensity at time of seeding. Single cells were seeded at a density of 4000 cells/well in μltra-low attachment 24-well plates to induce mammosphere formation. Cells were cultured in normal culture media for 7 days and were subsequently counted, dissociated enzymatically in Accutase, (Stem Cell Technologies, Vancouver, Canada: #07922), and analyzed by flow cytometry. See flow cytometry methods for detailed information.

[8] = tested on: MCF10ADCIS GFP human breast cancer cells; assay: DCIS mouse model, tumor growth and invasion; format: in vivo; conditions: IP every third day from day 21
Protocol: DCIS model: Female SHO mice, aged 6-8 weeks old, are injected with 250,000 MCF10ADCIS GFP human breast cancer cells into both #4 mammary fat pads, then palpated and measured three times a week with digital calipers and tumor visualization is aided by use of the illumatool light source with GFP filter so we can accurately measure tumors. Treatment with SmAb started at day 21 post injection. SmAb treatment is given by IP injection every third day. Weights are taken every treatment day and mice are monitored for weight loss and other health/behavior changes.

B1: SmAbH1: mouse monoclonal antibody against SEMA7A generated using the 10-mer immunizing peptide … (SEQ ID NO: 2) (antibody, V domains shown)
VH: QVKLQESGTVLARPGASVKMSCKASVYSFTSYWMHWVKQRPGQGLEWIGAIYPGNSDTSYNQKFKGKAKLTAVTSASTAYMELSSLTNEDSAVYYCTRGGAPTMITAYYAMDYWGQGTSVTVSS
VL: DIQMTQTTSSLSASLGDRVTISCRASQDISNYLNWYQQKPDGTVKLLIYYTSRLHSGVPSRFSGSGSGTDYSLTISNLEQEDIATYFCQQGNTLPWTFGGGTKLEIKR
- downstream NFκB activation (pNFκB levels) [1]: blocked downstream NFκB activation; also recorded: the effect was stronger
- downstream NFκB activation (pNFκB levels) [2]: blocked downstream NFκB activation
- cell viability compared to fulvestrant [3]: more significantly reduced
- binding to purified SEMA7A [4]: bound to purified SEMA7A in a dose dependent manner
- cell viability compared to fulvestrant [5]: more significantly reduced
- recognition of SEMA7A isoforms [6]: recognition of all three isoforms of SEMATA
- cell death [7]: induce cell death
- mammosphere formation [7]: reduce mammosphere formation
- tumor growth and invasion of ductal carcinoma in situ (DCIS) lesions [8]: block or inhibit tumor growth and invasion

Reference: patent publication US20250206839A1, “METHODS, COMPOSITIONS AND USES FOR SEMA7A MONOCLONAL ANTIBODIES” (THE REGENTS OF THE UNIVERSITY OF COLORADO, A BODY CORPORATE, priority 2022, published 2025)
